Measured values published in article PMC7036032.

Biological target: cleavage stimulation factor (CstF): CstF77-CstF50-CstF64(1-195) (human) (UniProt Q12996)
Assay: SEC

- stoichiometry N: 1
Substance: mammalian polyadenylation specificity factor (mPSF): CPSF160-WDR33(1-572)-CPSF30-Fip1(1-243), Q10570 1-1443; Q9C0J8 1-572; O95639-2 1-244; Q6UN15 1-243
